The labels stand for the following.
B1: CPEB3 Ribozyme (parent)
chain: GGGGGCCACAGCAGAAGCGUUCACGUCGCGGCCCCUGUCAGAUUCUGGUGAAUCUGCGAAUUCUGCUGU

The variants in the data set derive from B1. In words: self-cleavage, relative activity (ratio to wild type); higher = more cleavage; co-transcriptional.
For the variant GGGGGCCACAGCAGAAGCGUUCACGACGCGGCCCCUGUCAGAUUCUGGUGAAUCUGGGAAUUCUGCUGU [U26A C57G], the self-cleavage worked out at 0.216.

In the case of GGGGGCCACAGCAGAAGCGUUCACGACGCGGCCCCUGUCAGAUUCUGGUGAAUCUGCGAAUUCUGGUGU [U26A C66G], the self-cleavage turned out to be 0.635.

Consider GGGGGCCACAGCAGAAGCGUUCACGACGCGGCCCCUGUCAGAUUCUGGUGAAUCUGCGAAUUCUGAUGU [U26A C66A], for which the self-cleavage is 0.637.

In the case of GGGGGCCACAGCAGAAGCGUUCACGACGCGGCCCCUGUCAGAUUCUGGUGAAUCUGCGAAUUCUGUUGU [U26A C66U], the self-cleavage is 0.946.

GGGGGCCACAGCAGAAGCGUUCACGACGCGGCCCCUGUCAGAUUCUGGUGAAUCUGCGAGUUCUGCUGU [U26A A60G]: the self-cleavage was 0.478.

GGGGGCCACAGCAGAAGCGUUCACGACGCGGCCCCUGUCAGAUUCUGGUGAAUCUGCGAUUUCUGCUGU [U26A A60U]: the self-cleavage was determined as 0.377.

Consider GGGGGCCACAGCAGAAGCGUUCACUUCGCGGCCCCUGUCAGAUUCUGGUGAAUCGGCGAAUUCUGCUGU [G25U U55G], for which the self-cleavage worked out at 0.146.

As to GGGGGCCACAGCAGAAGCGUUCACUUCGCGGCCCCUGUCAGAUUCUGGUGAAUCAGCGAAUUCUGCUGU [G25U U55A], the self-cleavage turned out to be 0.154.

Take GGGGGCCACAGCAGAAGCGUUCACGACGCGGCCCUUGUCAGAUUCUGGUGAAUCUGCGAAUUCUGCUGU [U26A C35U]: the self-cleavage is 0.644.

For the variant GGGGGCCACAGCAGAAGCGUUCACGACGCGGCCCAUGUCAGAUUCUGGUGAAUCUGCGAAUUCUGCUGU [U26A C35A], the self-cleavage stood at 0.228.

As to GGGGGCCACAGCAGAAGCGUUCACUUCGCGGCCCCUGUCAGAUUCUGGUGAAUCUGCGAAUUCUGCAGU [G25U U67A], the self-cleavage was found to be 0.145.

With GGGGGCCACAGCAGAAGCGUUCACUUCGCGGCCCCUGUCAGAUUCUGGUGAAUCUGCGAAUUCUGCGGU [G25U U67G], the self-cleavage came to 0.237.

GGGGGCCACAGCAGAAGCGUUCACUUCGCGGCCCCUGUCAGAUUCUGGUGAAUCUGCGAAUUCUGCCGU [G25U U67C]: the self-cleavage is 0.212.

For GGGGGCCACAGCAGAAGCGUUCACGACGGGGCCCCUGUCAGAUUCUGGUGAAUCUGCGAAUUCUGCUGU [U26A C29G], the self-cleavage was 0.307.

For GGGGGCCACAGCAGAAGCGUUCACGACGCGGCCCCUGUCAGGUUCUGGUGAAUCUGCGAAUUCUGCUGU [U26A A42G], the self-cleavage stood at 0.72.

GGGGGCCACAGCAGAAGCGUUCACGACGCGGCCCCUGUCAGCUUCUGGUGAAUCUGCGAAUUCUGCUGU [U26A A42C]: the self-cleavage came to 0.797.

As to GGGGGCCACAGCAGAAGCGUUCACUUCGCGGCCCCUGUCAGAUUCUGGUGAAUCUGCGAAGUCUGCUGU [G25U U61G], the self-cleavage came out at 0.149.

As to GGGGGCCACAGCAGAAGCGUUCACGACGCGGCCCCUGUCAGAUUCUGGUAAAUCUGCGAAUUCUGCUGU [U26A G50A], the self-cleavage was 0.871.

Take GGGGGCCACAGCAGAAGCGUUCACGACGCGGCCCCUGUCAGAUUCUGGUCAAUCUGCGAAUUCUGCUGU [U26A G50C]: the self-cleavage was 0.95.

As for GGGGGCCACAGCAGAAGCGUUCACGACGCGGCCCCUGUCAGAGUCUGGUGAAUCUGCGAAUUCUGCUGU [U26A U43G], the self-cleavage came to 0.707.

Turning to GGGGGCCACAGCAGAAGCGUUCACGACGCGGCCCCUGUCAGACUCUGGUGAAUCUGCGAAUUCUGCUGU [U26A U43C], the self-cleavage came to 0.802.

As for GGGGGCCACAGCAGAAGCGUUCACGACGCGGCCCCUGUCAGAUUCUGGUGAAUUUGCGAAUUCUGCUGU [U26A C54U], the self-cleavage came out at 0.909.

Consider GGGGGCCACAGCAGAAGCGUUCACGACGCGGCCCCUGUCAGAUUCUAGUGAAUCUGCGAAUUCUGCUGU [U26A G47A], for which the self-cleavage was 0.88.

As to GGGGGCCACAGCAGAAGCGUUCACGACGCGGCCCCUGUCAGAUUCUUGUGAAUCUGCGAAUUCUGCUGU [U26A G47U], the self-cleavage was found to be 0.932.

Regarding GGGGGCCACAGCAGAAGCGUUCACGACGCGGCCCCUGUCAGAUUCUGGUGAAUCUCCGAAUUCUGCUGU [U26A G56C], the self-cleavage was determined as 0.357.

GGGGGCCACAGCAGAAGCGUUCACGACGCGGCCCCUGUCAGAUUCUGGUGAAUCUUCGAAUUCUGCUGU [U26A G56U]: the self-cleavage was 0.752.

GGGGGCCACAGCAGAAGCGUUCACGACGCGGCCCCUGCCAGAUUCUGGUGAAUCUGCGAAUUCUGCUGU [U26A U38C]: the self-cleavage was 0.419.

With GGGGGCCACAGCAGAAGCGUUCACGACGCGGCCCCUGGCAGAUUCUGGUGAAUCUGCGAAUUCUGCUGU [U26A U38G], the self-cleavage is 0.244.

Take GGGGGCCACAGCAGAAGCGUUCACGACGCGGCCCCUGACAGAUUCUGGUGAAUCUGCGAAUUCUGCUGU [U26A U38A]: the self-cleavage came to 0.423.

On to GGGGGCCACAGCAGAAGCGUUCACGACGCGGCCCCUGUCAGAUACUGGUGAAUCUGCGAAUUCUGCUGU [U26A U44A], for which the self-cleavage was 0.843.

Take GGGGGCCACAGCAGAAGCGUUCACGACGCGGCCCCUGUCAGAUGCUGGUGAAUCUGCGAAUUCUGCUGU [U26A U44G]: the self-cleavage is 0.85.

For GGGGGCCACAGCAGAAGCGUUCACUUCGCGGCCCCUGUCAGAUUCUGGUGAAUCUGCGAAUCCUGCUGU [G25U U62C], the self-cleavage amounted to 0.193.

For GGGGGCCACAGCAGAAGCGUUCACGACGCGACCCCUGUCAGAUUCUGGUGAAUCUGCGAAUUCUGCUGU [U26A G31A], the self-cleavage came out at 0.511.

As for GGGGGCCACAGCAGAAGCGUUCACGACGCGGCCCCUGUCAGAUUCUGGUGAAUCUGCGAAUUAUGCUGU [U26A C63A], the self-cleavage was 0.51.

Turning to GGGGGCCACAGCAGAAGCGUUCACGACGCGGCCCCUGUCAGAUUCUGGUGAAUCUGCGAAUUCUGCUGU [U26A], the self-cleavage was 0.907.

In the case of GGGGGCCACAGCAGAAGCGUUCACGACGCGGGCCCUGUCAGAUUCUGGUGAAUCUGCGAAUUCUGCUGU [U26A C32G], the self-cleavage amounted to 0.231.

On to GGGGGCCACAGCAGAAGCGUUCACGACGCGGACCCUGUCAGAUUCUGGUGAAUCUGCGAAUUCUGCUGU [U26A C32A], for which the self-cleavage is 0.422.

As to GGGGGCCACAGCAGAAGCGUUCACGACGCGGUCCCUGUCAGAUUCUGGUGAAUCUGCGAAUUCUGCUGU [U26A C32U], the self-cleavage amounted to 0.869.

Consider GGGGGCCACAGCAGAAGCGUUCACGACGCGGCCCCUGUCAGAUUCUGGUGUAUCUGCGAAUUCUGCUGU [U26A A51U], for which the self-cleavage amounted to 0.813.

These data come from the RNAGym collection of RNA variant scans (doi:10.7554/elife.80360).
